Measured values from US20220227814A1 (NEVADA RESEARCH AND INNOVATION, published 2022).
Bridge positions count the residues as written; N and C are the ends. Square brackets hold non-standard residues; d marks the D form. Ends that are not written are not given here. Dap = NC[C@H](N)C(=O)O

How the values were obtained:
Assay in all cases: cell-based or functional assay
[1] = target: T1, ComD1 receptor (Streptococcus pneumoniae)
[2] = target: T2, ComD2 receptor (Streptococcus pneumoniae)
[3] = target: T1, ComD1 receptor; remark: listed apart in the source
[4] = target: T2, ComD2 receptor; remark: listed apart in the source
[5] = target: T1, ComD1 receptor; remark: listed apart in the source
[6] = target: T2, ComD2 receptor; remark: listed apart in the source

With EMRLSXFFREFILQRKK (Dap at position 6; side chain-to-side chain lactam between Dap6 and Glu10) [CSP1-cyc(Dap6E10)] the “fold potency compared to CSP1-cyc(Orn6D10)” value [1] was 10 fold, the “maximal induction of comX compared to CSP1” value [1] was 100% and the “fold potency compared to CSP2” value [2] was about 4 fold. The “EC50 (reporter strain)” value [3] was 14.6 nM and the “EC50 (reporter strain)” value [4] was 13.1 nM.

AMRLS[Dap]FFREFILQR (lactam 6-10) [CSP1-E1A-des-K16K17-cyc(Dap6E10)] was tested, and the “fold inhibition potency compared to CSP1-E1A-cyc(Dap6E10)” value [1] was about 10 fold, the “fold inhibition potency compared to CSP1-E1A-cyc(Dap6E10)” value [2] was 3 fold and the “IC50 (reporter strain)” value [3] was 7.57 nM. The “IC50 (reporter strain)” value [4] was 67.2 nM, the “IC50 (ComD1 EC50/IC50; β-gal reporter)” value [5] was 7.57 nM and the “IC50 (ComD2 EC50/IC50; β-gal reporter)” value [6] was 67.2 nM.

With EMRLSXFFRDFILQRKK (Dab at position 6; side chain-to-side chain lactam between Dab6 and Asp10) [CSP1-cyc(Dab6D10)] the “EC50 (reporter strain)” value [3] was 59.5 nM and the “EC50 (reporter strain)” value [4] was over 1000 nM.

With AMRLS[Dap]FFREFILQRKK (lactam 6-10) [CSP1-E1A-cyc(Dap6E10)] the “fold inhibition potency compared to CSP2-E1Ad10” value [2] was 3 fold, the “IC50 (reporter strain)” value [3] was 75.8 nM and the “IC50 (reporter strain)” value [4] was 182 nM. For the same binder, the “IC50 (ComD1 EC50/IC50; β-gal reporter)” value [5] was 75.8 nM and the “IC50 (ComD2 EC50/IC50; β-gal reporter)” value [6] was 182 nM.

AMRLSKFFRDFILQRKK [CSP1-E1A] was tested, and the “IC50 (ComD1 EC50/IC50; β-gal reporter)” value [5] was 85.7 nM and the “EC50/IC50 (kind not distinguishable; β-gal reporter)” value [6] was over 10000 nM.

EMRISRIIL[dD]FLFLRKK [CSP2-d10] was tested, and the “EC50 (ComD1 EC50/IC50; β-gal reporter)” value [5] was 513 nM and the “EC50 (ComD2 EC50/IC50; β-gal reporter)” value [6] was 2.86 nM.

B1: CSP1-cyc(Orn6D10) (peptide)
peptide: EMRLSXFFRDFILQRKK
modifications: Orn (ornithine) at position 6; side chain-to-side chain lactam between Orn6 and Asp10
In the case of B1, the “maximal induction of comX compared to CSP1” value [1] is reported as 100%, the “fold decrease in fold potency compared to CSP1-cyc(Dab6E10) and CSP1-cyc(Dap6E10)” value [2] is reported as over 30 fold and the “EC50 (reporter strain)” value [3] is reported as 193 nM. For the same binder, the “EC50 (reporter strain)” value [4] was over 1000 nM.

In the case of EMRLSKFFDDFILQRKK [CSP1 with Arg9 replaced with Asp (linear)], the “fold reduction in potency against CSP1” value [1] is reported as over 100 fold.

For EMRISRIILDFLFLRKK [CSP2 (competence stimulating peptide 2)], the “EC50 (reporter strain)” value [3] was 1650 nM, the “EC50 (reporter strain)” value [4] was 50.7 nM and the “EC50 (ComD1 EC50/IC50; β-gal reporter)” value [5] was 1650 nM. The “EC50 (ComD2 EC50/IC50; β-gal reporter)” value [6] was 50.7 nM.

In the case of EMRLSKFFRDFILDRKK (lactam 6-14) [CSP1-cyc(K6D14)], the “EC50 (reporter strain)” value [3] is reported as over 1000 nM and the “EC50 (reporter strain)” value [4] is reported as over 1000 nM.

With EMRLSKFFRKFILDRKK (lactam 10-14) [CSP1-cyc(K10D14)] the “EC50 (reporter strain)” value [3] was 257 nM.

EMRLSXFFREFILQRKK (Dab at position 6; side chain-to-side chain lactam between Dab6 and Glu10) [CSP1-cyc(Dab6E10)] was tested, and the “fold potency compared to CSP1-cyc(Orn6D10)” value [1] was 10 fold, the “maximal induction of comX compared to CSP1” value [1] was 100% and the “EC50 (reporter strain)” value [3] was 12.2 nM. The “EC50 (reporter strain)” value [4] was 31.4 nM.

With EMRLSKFFDDFILQRKK (lactam 6-9) [CSP1-cyc(K6D9)] the “EC50 (reporter strain)” value [3] was over 1000 nM and the “EC50 (reporter strain)” value [4] was 528 nM.

With EMRLSKFFREFILQRKK (lactam 6-10) [CSP1-cyc(K6E10)] the “EC50 (reporter strain)” value [3] was 350 nM and the “EC50 (reporter strain)” value [4] was over 1000 nM.

EMRLSAFFRDFILQRKK [CSP1-K6A] was tested, and the “EC50 (ComD1 EC50/IC50; β-gal reporter)” value [5] was 51 nM and the “EC50 (ComD2 EC50/IC50; β-gal reporter)” value [6] was 24 nM.

B2: CSP1-cyc(Orn6E10) (peptide)
peptide: EMRLSXFFREFILQRKK
modifications: Orn (ornithine) at position 6; side chain-to-side chain lactam between Orn6 and Glu10
For B2, the “EC50 (reporter strain)” value [3] was 422 nM and the “EC50 (reporter strain)” value [4] was over 1000 nM.

In the case of AMRLSXFFREFILQRKK (Dab at position 6; side chain-to-side chain lactam between Dab6 and Glu10) [CSP1-E1A-cyc(Dab6E10)], the “IC50 (reporter strain)” value [3] is reported as 173 nM, the “EC50/IC50 (kind not distinguishable; reporter strain)” value [4] is reported as over 1000 nM and the “IC50 (ComD1 EC50/IC50; β-gal reporter)” value [5] is reported as 173 nM. The “EC50/IC50 (kind not distinguishable; β-gal reporter)” value [6] was over 1000 nM.

With EMRLSKFFRDFILQRKK (lactam 6-10) [CSP1-cyc(K6D10)] the “maximal induction of comX compared to CSP1” value [1] was 44% and the “EC50 (reporter strain)” value [3] was 258 nM.

With EMRLSKFFRDFILQRKK [CSP1 (competence stimulating peptide 1)] the “EC50 (reporter strain)” value [3] was 10.3 nM and the “EC50 (ComD1 EC50/IC50; β-gal reporter)” value [5] was 10.3 nM.

AMRISRIIL[dD]FLFLRKK [CSP2-E1Ad10] was tested, and the “EC50/IC50 (kind not distinguishable; β-gal reporter)” value [5] was over 1000 nM and the “IC50 (ComD2 EC50/IC50; β-gal reporter)” value [6] was 56.5 nM.

EMRLSXFFRDFILQRKK (Dap at position 6; side chain-to-side chain lactam between Dap6 and Asp10) [CSP1-cyc(Dap6D10)] was tested, and the “EC50 (reporter strain)” value [3] was 435 nM and the “EC50 (reporter strain)” value [4] was over 1000 nM.
